This series has as its target rGST (UniProt P08515 1-218). The series can be described thus: EMSA; 1 and 3 μg rGST; Chemiluminescent EMSA Kit (Beyotime), buffer, salt and pH not stated; competitor 10 min then biotin probe 20 min at 25 °C; native 6% polyacrylamide gel. Particulars: protein: recombinant; chain copies: 2; blunt. A general note: In EMSA bound probe runs differently from free probe, usually more slowly.

Chain of rGST (P08515 whole entry): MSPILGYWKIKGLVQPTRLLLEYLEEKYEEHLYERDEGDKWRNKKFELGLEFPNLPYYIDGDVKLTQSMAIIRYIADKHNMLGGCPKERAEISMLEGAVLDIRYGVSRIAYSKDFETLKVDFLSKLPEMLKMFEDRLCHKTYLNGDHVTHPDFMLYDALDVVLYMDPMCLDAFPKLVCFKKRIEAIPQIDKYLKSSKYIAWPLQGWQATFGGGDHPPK

B1: HK-WT probe (dsDNA)
DNA 1: CAAATGACTAGAACGTGCGACATTAGTGAA
DNA 2: TTCACTAATGTCGCACGTTCTAGTCATTTG
Regarding B1, the binding result was “no binding”.

The record behind these values is article PMC10070494, “WSSV exploits AMPK to activate mTORC2 signaling for proliferation by enhancing aerobic glycolysis”.
